± gives the uncertainty stated by the source.
B1: library; numbered along this chain (parent)
chain: MEVVDPQQLGMFTEGELMSVGMDTFIHRIDSTEVIYQPRRKRAKLIGKYLMGDLLGEGSYGKVKEVLDSETLCRRAVKILKKKKLRRIPNGEANVKKEIQLLRRLRHKNVIQLVDVLYNEEKQKMYMVMEYCVCGMQEMLDSVPEKRFPVCQAHGYFCQLIDGLEYLHSQGIVHKDIKPGNLLLTTGGTLKISDLGVAEALHPFAADDTCRTSQGSPAFQPPEIANGLDTFSGFKVDIWSAGVTLYNITTGLYPFEGDNIYKLFENIGKGSYAIPGDCGPPLSDLLKGMLEYEPAKRFSIRQIRQHSWFRKKHPPAEAPVPIPPSPDTKDRWRSMTVVPYLEDLHGADEDEDLFDIEDDIIYTQDFTVPGQVPEEEASHNGQRRGLPKAVCMNGTEAAQLSTKSRAEGRAPNPARKACSASSKIRRLSACKQQ

Variants of: B1
Test: STK11 functional score (HeLa growth suppression), rescaled enrichment; synonymous median = 1, nonsense median = 0 (normalised score)
Details: with HeLa; variant type: missense
How it was run: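 In HeLa, Bxb1 integrated POPCode codon-randomised libraries of codon-optimised STK11 at an AAVS1 landing pad; three regions were each transfected three times. Integrants, marked as BFP-negative and mCherry-positive, were FACS-sorted 4–5 days after electroporation and expanded for about two weeks before tiled gDNA amplicons were sequenced on NextSeq (~2 million reads per tile). Each functional score is a post/pre-selection log ratio corrected to wild type, rescaled to the synonymous and nonsense medians, and merged across codons and replicate transfections, with error estimated by bootstrapping.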

Variant | STK11 functional score
M289F | -0.0683 ± 0.074
L183G | 0.551 ± 0.24
G227E | 0.563 ± 0.19
Q399H | 1.13 ± 0.63
Q399I | 1.05 ± 0.34
C73I | 0.566 ± 0.1
C73W | 0.426 ± 0.11
I360G | 1.44 ± 0.23
I360K | 1.31 ± 0.4
Q37A | 1.34 ± 0.51
Q37S | 1.34 ± 0.13
A76W | -0.171 ± 0.28
G279T | 1.57 ± 0.21
L252M | 0.771 ± 0.35
L252F | 1.07 ± 0.39
G52I | 1.64 ± 0.2
E407W | 0.194 ± 0.092
S142A | 1.63 ± 0.14
S142R | 0.875 ± 0.4
D208C | 1.26 ± 0.38
D359H | 1.21 ± 0.39
K287S | 0.94 ± 0.2
F234A | 1.35 ± 0.39
F234D | 1.18 ± 0.1

Variant | STK11 functional score
A198H | 1.54 ± 0.13
S307T | 1.22 ± 0.52
D207L | 0.856 ± 0.12
G385E | 1.41 ± 0.67
G385M | 1.59 ± 0.24
P413R | 1.49 ± 0.33
P413A | 1.5 ± 0.2
D350R | 1.61 ± 0.17
D350T | 1.47 ± 0.14
D350W | 1.6 ± 0.19
D350I | 1.25 ± 0.2
R40A | 1.6 ± 0.36
R40W | 1.24 ± 0.38
I224E | 1.03 ± 0.86
L50C | 1.41 ± 0.2
F148C | 0.493 ± 0.087
F148H | -0.00697 ± 0.084
L105R | 0.653 ± 0.31
L80G | 0.429 ± 0.082
A414S | 1.57 ± 0.18
T249A | 0.412 ± 0.66
T249D | -0.107 ± 0.097
P323H | 1.42 ± 0.2
P323D | 1.33 ± 0.44

Variant | STK11 functional score
F204H | 1.67 ± 0.41
H306G | 0.475 ± 0.077
Y253V | 1.56 ± 0.22
A406M | 0.606 ± 0.2
C418Y | 1.6 ± 0.17
V337T | 1.61 ± 0.15
S240L | 0.708 ± 0.14
T230A | 0.88 ± 0.11
T230H | 1.46 ± 0.38
L182D | 0.257 ± 0.33
L182Y | -0.00243 ± 0.071
R39D | 1.19 ± 0.099
L245F | 0.00828 ± 0.095
S19G | 1.64 ± 0.2
F255L | 0.5 ± 0.21
I111W | -0.448 ± 0.08
I111Y | 0.97 ± 0.1
T186M | 0.369 ± 0.12
D141L | 1.63 ± 0.23
V372W | 1.09 ± 0.29
M127L | 0.382 ± 0.08
F157M | 0.503 ± 0.088
K64R | 1.4 ± 0.17
G251I | 0.422 ± 0.25

Variant | STK11 functional score
P321L | 1.17 ± 0.25
P321Y | 0.641 ± 0.72
K41F | 1.14 ± 0.082
D355H | 1.11 ± 0.65
R28S | 1.59 ± 0.13
D348H | 1.18 ± 0.6
D348Y | 0.868 ± 0.53
E374A | 0.915 ± 0.21
E376L | 1.42 ± 0.28
G91P | 1.62 ± 0.19
K311L | 1.04 ± 0.14
H202G | 1.3 ± 0.16
I356P | 1.6 ± 0.26
G187L | 1.27 ± 0.2
H107M | 0.523 ± 0.27
V368D | 1.53 ± 0.14
V368T | 1.56 ± 0.18
V368L | 1.35 ± 0.23
V110D | 0.338 ± 0.084
V110L | 1.23 ± 0.14
Y131V | 0.785 ± 0.087
Y131E | 0.174 ± 0.082
K388S | 1.19 ± 0.28
N393Y | 1.51 ± 0.15

Variant | STK11 functional score
V390G | 1.39 ± 0.32
V390W | 0.447 ± 0.12
E223W | 0.142 ± 0.1
D365N | 0.613 ± 0.79
R310H | 1.5 ± 0.18
T24F | 1.37 ± 0.11
T189W | 1.2 ± 0.13
S193W | 0.0192 ± 0.15
T363N | 1.03 ± 0.33
R86M | -0.183 ± 0.08
E33N | 1.33 ± 0.15
V143L | 1.17 ± 0.15
V143H | 1.44 ± 0.18
S69E | 1.23 ± 0.091
L282Y | 1.07 ± 0.17
W239I | -0.18 ± 0.095
R103K | 1.18 ± 0.77
Q382K | 1.11 ± 0.44
E92Y | 1.32 ± 0.26
E92M | -0.344 ± 0.13
E92T | 1.62 ± 0.18
D277A | 0.843 ± 0.41
D277N | 1.15 ± 0.65
I248M | 1.24 ± 0.3

Variant | STK11 functional score
V133G | 1.14 ± 0.091
V133A | 1.41 ± 0.4
V133W | 0.452 ± 0.079
L54T | 1.47 ± 0.23
Q305T | 1.5 ± 0.24
Q305W | 0.981 ± 0.4
E317R | 1.58 ± 0.22
L9M | 1.01 ± 0.32
K235C | 1.4 ± 0.27
K235A | 1.65 ± 0.24
L190Y | 0.0792 ± 0.094
D327I | 1.6 ± 0.27
D327R | 1.61 ± 0.16
F231W | 0.409 ± 0.37
F231G | 1.17 ± 0.26
P6W | 0.513 ± 0.074
P6E | 1.24 ± 0.47
P6F | 0.754 ± 0.11
Y36S | 0.558 ± 0.26
S404W | 1.43 ± 0.42
L184T | 1.49 ± 0.24
I424M | 1.42 ± 0.38
I424K | 1.22 ± 0.33
I424N | 1.44 ± 0.4

Variant | STK11 functional score
F264V | 0.678 ± 0.21
I79Q | 1.51 ± 0.18
K81T | 1.35 ± 0.3
Q220G | 0.849 ± 0.17
V236L | 0.273 ± 0.21
V236W | 1.04 ± 0.19
H313E | 1.43 ± 0.16
A206N | 1.66 ± 0.2
S271P | 0.317 ± 0.1
L386V | 1.06 ± 0.46
S401V | 1.41 ± 0.24
S401E | 1.24 ± 0.46
S401T | 0.884 ± 0.64
S401H | 1.49 ± 0.16
R75W | 0.21 ± 0.14
R75M | 0.00187 ± 0.29
R75G | 1.56 ± 0.46
Y261T | 1.04 ± 0.29
Y261A | 1.25 ± 0.43
T185N | 0.509 ± 0.18
T185R | 0.992 ± 0.21
Y340L | 1.59 ± 0.16
E14W | 0.426 ± 0.6

— the supplement of paper PMC12338614
